Measurements from patent US20240024499A1.

Biological target: glypican-3 (GPC3) on GPC3-positive liver cancer cell lines HepG2-C3A and Hep3B (human) (UniProt P51654)
Assay: flow cytometry on GPC3-positive HepG2-C3A and Hep3B cells, anti-hIgG-AF488 detection

Sequence of glypican-3 (GPC3) on GPC3-positive liver cancer cell lines HepG2-C3A and Hep3B (human) (P51654 25-580): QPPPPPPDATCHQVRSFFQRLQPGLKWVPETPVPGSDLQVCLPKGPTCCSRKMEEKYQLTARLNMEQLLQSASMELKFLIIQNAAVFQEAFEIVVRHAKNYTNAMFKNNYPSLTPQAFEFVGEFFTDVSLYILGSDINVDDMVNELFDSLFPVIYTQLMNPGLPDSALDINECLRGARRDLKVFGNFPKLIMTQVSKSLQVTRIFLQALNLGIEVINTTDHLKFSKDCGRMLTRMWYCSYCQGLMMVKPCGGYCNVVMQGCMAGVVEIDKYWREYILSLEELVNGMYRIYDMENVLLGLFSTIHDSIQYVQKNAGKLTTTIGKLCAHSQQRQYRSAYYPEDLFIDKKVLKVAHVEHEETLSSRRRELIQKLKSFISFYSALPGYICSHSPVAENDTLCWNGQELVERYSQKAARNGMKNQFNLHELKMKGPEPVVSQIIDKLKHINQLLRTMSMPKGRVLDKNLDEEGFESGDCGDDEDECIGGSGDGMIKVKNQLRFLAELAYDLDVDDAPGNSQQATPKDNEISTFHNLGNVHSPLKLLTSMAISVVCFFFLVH

B1: ARD103 antibody (antibody, human IgG1, kappa, V domains shown)
VH: QVQLVESGAEVKKPGASVKVSCKASGYTFTDYEMHWVRQAPGQGLEWMGALDPKTGDTAYSQKFKGRVTLTADKSTSTAYMELSSLTSEDTAVYYCTRFYSYTYWGQGTLVTVSS
VL: DVVMTQSPLSLPVTPGEPASISCRSSQSLVHSNGNTYLHWYLQKPGQSPQLLIYKVSNRFSGVPDRFSGSGSGTDFTLKISRVEAEDVGVYYCSQNTHVPPTFGQGTKLEIKR
An EC50 of 3.5 to 4 nM was found for B1 in this work.
